IntAct's records for PubMed 22111578

B1: ADP-ribosylation factor 4 (Mus musculus), P61750 (parent)
chain: MGLTISSLFSRLFGKKQMRILMVGLDAAGKTTILYKLKLGEIVTTIPTIGFNVETVEYKNICFTVWDVGGQDKIRPLWRHYFQNTQGLIFVVDSNDRERIQEGAAVLQKMLLEDELQDAVLLLFANKQDLPNAMAISEMTDKLGLQSLRNRTWYVQATCATQGTGLYEGLDWLSNELSKR
B2: ADP-ribosylation factor 5 (Mus musculus), P84084 (parent)
chain: MGLTVSALFSRIFGKKQMRILMVGLDAAGKTTILYKLKLGEIVTTIPTIGFNVETVEYKNICFTVWDVGGQDKIRPLWRHYFQNTQGLIFVVDSNDRERVQESADELQKMLQEDELRDAVLLVFANKQDMPNAMPVSELTDKLGLQHLRSRTWYVQATCATQGTGLYDGLDWLSHELSKR

Variants of: B1
Conditions: with caps2_mouse Cadps2, Q8BYR5
Target sequence in this assay (Q8BYR5 whole entry): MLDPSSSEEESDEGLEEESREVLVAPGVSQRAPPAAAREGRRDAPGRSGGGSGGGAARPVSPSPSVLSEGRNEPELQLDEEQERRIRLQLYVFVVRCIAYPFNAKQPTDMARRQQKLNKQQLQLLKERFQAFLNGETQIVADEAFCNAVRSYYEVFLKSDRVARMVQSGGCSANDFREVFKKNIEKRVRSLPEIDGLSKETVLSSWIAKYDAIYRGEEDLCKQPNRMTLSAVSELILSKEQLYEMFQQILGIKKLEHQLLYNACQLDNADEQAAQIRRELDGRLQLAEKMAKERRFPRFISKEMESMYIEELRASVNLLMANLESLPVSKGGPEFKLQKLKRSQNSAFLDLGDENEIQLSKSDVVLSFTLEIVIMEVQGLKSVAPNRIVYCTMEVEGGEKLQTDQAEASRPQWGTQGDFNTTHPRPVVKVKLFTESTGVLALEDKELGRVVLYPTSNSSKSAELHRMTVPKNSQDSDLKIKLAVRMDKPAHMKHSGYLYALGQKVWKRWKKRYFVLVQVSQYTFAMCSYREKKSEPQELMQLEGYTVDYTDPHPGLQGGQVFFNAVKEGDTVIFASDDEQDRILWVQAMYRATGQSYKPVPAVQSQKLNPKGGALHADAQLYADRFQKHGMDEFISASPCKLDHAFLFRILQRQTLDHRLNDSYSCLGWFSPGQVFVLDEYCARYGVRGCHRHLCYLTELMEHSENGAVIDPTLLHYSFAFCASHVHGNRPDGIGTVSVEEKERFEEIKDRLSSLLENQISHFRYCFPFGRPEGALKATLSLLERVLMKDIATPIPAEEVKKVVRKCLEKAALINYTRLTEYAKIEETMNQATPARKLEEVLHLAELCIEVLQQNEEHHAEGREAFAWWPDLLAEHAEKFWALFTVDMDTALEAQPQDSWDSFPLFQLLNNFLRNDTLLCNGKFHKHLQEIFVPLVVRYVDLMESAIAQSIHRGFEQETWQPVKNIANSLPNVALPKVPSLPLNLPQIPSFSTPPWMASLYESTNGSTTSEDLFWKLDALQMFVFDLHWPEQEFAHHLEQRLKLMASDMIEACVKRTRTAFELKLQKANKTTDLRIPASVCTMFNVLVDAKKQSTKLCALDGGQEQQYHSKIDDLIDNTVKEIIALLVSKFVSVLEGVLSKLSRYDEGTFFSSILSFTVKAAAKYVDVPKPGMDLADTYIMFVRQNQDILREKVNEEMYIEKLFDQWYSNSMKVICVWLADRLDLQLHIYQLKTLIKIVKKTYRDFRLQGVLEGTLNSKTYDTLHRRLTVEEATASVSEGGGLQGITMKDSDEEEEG

Row | effect of a mutation on the interaction | Variant
1 | increasing interaction | T31N

Variants of: B1
Conditions: with caps2_mouse Cadps2, Q8BYR5
Remark: another data set of the same source
Target sequence in this assay (Q8BYR5 whole entry): as above

Row | effect of a mutation on the interaction | Variant
2 | disrupting interaction | Q71L

Variants of: B2
Conditions: with caps2_mouse Cadps2, Q8BYR5
Target sequence in this assay (Q8BYR5 whole entry): as above

Row | effect of a mutation on the interaction | Variant
3 | increasing interaction | T31N

Variants of: B2
Conditions: with caps2_mouse Cadps2, Q8BYR5
Remark: another data set of the same source
Target sequence in this assay (Q8BYR5 whole entry): as above

Row | effect of a mutation on the interaction | Variant
4 | disrupting interaction | Q71L

Variants of: B2
Conditions: with caps2_mouse Cadps2, Q8BYR5
Remark: another data set of the same source
Target sequence in this assay (Q8BYR5 whole entry): as above

Row | effect of a mutation on the interaction | Variant
5 | disrupting interaction | S6A
